B1: Subtilisin inhibitor, P01006 (parent)
chain: MRNTGAGPSPSVSRPPPSAAPLSGAALAAPGDAPSALYAPSALVLTVGKGVSATTAAPERAVTLTCAPGPSGTHPAAGSACADLAAVGGDLNALTRGEDVMCPMVYDPVLLTVDGVWQGKRVSYERVFSNECEMNAHGSSVFAF

The series covers variants of B1. The note with it: Streptomyces albogriseolus, Thermal, DSC, reversible: yes, structure 3SSI, whole UniProt chain shown; for ddG of mutation (higher = less stable) / unfolding free energy: 53.36 °C.

Consider MRNTGAGPSPSVSRPPPSAAPLSGAALAAPGDAPSALYAPSALVLTVGKGVSATTAAPERAVTLTCAPGPSGTHPAAGSACADLAAVGGDLNALTRGEDVMCPLVYDPVLLTVDGVWQGKRVSYERVFSNECEMNAHGSSVFAF [M104L], for which, for the setting “pH 3.2, glycine 25 mM”, the “ddG of mutation (higher = less stable)” value was determined as 0.13 kcal/mol; the unfolding free energy is 5.42 kcal/mol; the Tm – broadly, the temperature at which the thermal transition is half complete – was 52.9 °C; the “change of melting temperature, mutant - wild type (higher = more stable)” value (“change of melting temperature, mutant” for short) was -0.43 °C. In addition, where the note is “pH 3.2, glycine 25 mM”, the “unfolding enthalpy (calorimetric)” value came to 108 kcal/mol. Also, where the note is “pH 7, phosphate 25 mM”, the “ddG of mutation (higher = less stable)” value was found to be 0.25 kcal/mol; the unfolding free energy came to 5.78 kcal/mol; the midpoint of thermal melting (Tm) was 81.8 °C; the “change of melting temperature, mutant” value is -0.46 °C. The “unfolding enthalpy (calorimetric)” value (pH 7, phosphate 25 mM) was 193 kcal/mol. Under “pH 9.5, glycine 25 mM”, the “ddG of mutation (higher = less stable)” value worked out at 0.55 kcal/mol and the unfolding free energy turned out to be 5.49 kcal/mol.

Turning to MRNTGAGPSPSVSRPPPSAAPLSGAALAAPGDAPSALYAPSALVLTVGKGVSATTAAPERAVTLTCAPGPSGTHPAAGSACADLAAVGGDLNALTRGEDVMCPAVYDPVLLTVDGVWQGKRVSYERVFSNECEMNAHGSSVFAF [M104A], for the setting “pH 3.2, glycine 25 mM”, the “ddG of mutation (higher = less stable)” value is -0.54 kcal/mol; the unfolding free energy amounted to 6.09 kcal/mol; the Tm came to 55 °C; the “change of melting temperature, mutant” value was 1.66 °C. Also, the “unfolding enthalpy (calorimetric)” value (pH 3.2, glycine 25 mM) came out at 101 kcal/mol. In addition, for the setting “pH 7, phosphate 25 mM”, the “ddG of mutation (higher = less stable)” value was -0.55 kcal/mol; the unfolding free energy worked out at 6.58 kcal/mol; the Tm was 83.4 °C; the “change of melting temperature, mutant” value amounted to 1.16 °C. In addition, the “unfolding enthalpy (calorimetric)” value (pH 7, phosphate 25 mM) was 183 kcal/mol. Besides, where the note is “pH 9.5, glycine 25 mM”, the “ddG of mutation (higher = less stable)” value is -0.13 kcal/mol; the unfolding free energy was found to be 6.17 kcal/mol; the Tm stood at 80.9 °C; the “change of melting temperature, mutant” value was 0.18 °C. Besides, the “unfolding enthalpy (calorimetric)” value (pH 9.5, glycine 25 mM) came to 178 kcal/mol.

Take MRNTGAGPSPSVSRPPPSAAPLSGAALAAPGDAPSALYAPSALVLTVGKGVSATTAAPERAVTLTCAPGPSGTHPAAGSACADLAAVGGDLNALTRGEDVMCPIVYDPVLLTVDGVWQGKRVSYERVFSNECEMNAHGSSVFAF [M104I]: for the setting “pH 3.2, glycine 25 mM”, the “ddG of mutation (higher = less stable)” value came out at 0.73 kcal/mol and the unfolding free energy came out at 4.82 kcal/mol. Also, where the note is “pH 7, phosphate 25 mM”, the “ddG of mutation (higher = less stable)” value was determined as 0.94 kcal/mol; the unfolding free energy turned out to be 5.09 kcal/mol; the Tm was determined as 80.4 °C; the “change of melting temperature, mutant” value was -1.78 °C. The “unfolding enthalpy (calorimetric)” value (pH 7, phosphate 25 mM) is 193 kcal/mol. Where the note is “pH 9.5, glycine 25 mM”, the Tm was determined as 78.3 °C; the “change of melting temperature, mutant” value was -2.42 °C; the “unfolding enthalpy (calorimetric)” value stood at 189 kcal/mol.

On to MRNTGAGPSPSVSRPPPSAAPLSGAALAAPGDAPSALYAPSALVLTVGKGVSATTAAPERAVTLTCAPGPSGTHPAAGSACADLAAVGGDLNALTRGEDVMCPEVYDPVLLTVDGVWQGKRVSYERVFSNECEMNAHGSSVFAF [M104E], for which, under “pH 3.2, glycine 25 mM”, the “ddG of mutation (higher = less stable)” value is -0.35 kcal/mol; the unfolding free energy was found to be 5.9 kcal/mol; the midpoint of thermal melting (Tm) turned out to be 54.3 °C; the “change of melting temperature, mutant” value was 0.98 °C. Besides, the “unfolding enthalpy (calorimetric)” value (pH 3.2, glycine 25 mM) was determined as 103 kcal/mol. For the same variant, for the setting “pH 7, phosphate 25 mM”, the “ddG of mutation (higher = less stable)” value is -1.05 kcal/mol; the unfolding free energy is 7.08 kcal/mol; the Tm came to 84.2 °C; the “change of melting temperature, mutant” value is 1.99 °C. Moreover, the “unfolding enthalpy (calorimetric)” value (pH 7, phosphate 25 mM) came out at 185 kcal/mol.
